According to patent publication US20100136580A1 (Genentech, published 2010):
No end group written: not given here.

T1: purified Dvl2PDZ domain polypeptide (human, UniProt O14641 248-364)
T1 construct: range 248-364; As used in the fluorescence polarization assay; also called DvlPDZ domain
T1 sequence (looked up): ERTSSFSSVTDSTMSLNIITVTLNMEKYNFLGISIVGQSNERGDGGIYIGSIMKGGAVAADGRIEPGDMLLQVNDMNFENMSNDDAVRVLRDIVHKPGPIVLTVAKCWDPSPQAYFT

T2: GST-Dvl2PDZ fusion protein (human, UniProt O14641 248-364)
T2 construct: range 248-364; Made with the pGEX E. coli expression system; also called GST-PDZ fusion protein; not shown: glutathione S-transferase (GST) encoded by plasmid pGEX
T2 sequence (looked up): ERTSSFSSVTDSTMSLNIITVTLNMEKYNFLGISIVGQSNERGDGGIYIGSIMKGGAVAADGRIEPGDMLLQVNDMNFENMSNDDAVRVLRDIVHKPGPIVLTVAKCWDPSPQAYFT


target: DvlPDZ domain (endogenous Dvl in the treated cells); test: cell-based or functional assay

| inhibition of Wnt3a-stimulated transcriptional activity (TopGlow assay, HEK293 cells) | Binder |
| --- | --- |
| 50% | Ac-RQIKIWFQNRRMKWKKKWYGWL [Ac-… (DVLp_C)] |

target: T1, purified Dvl2PDZ domain polypeptide; test: fluorescence polarization competition
Description: (§1) The binding affinities of synthetic peptides were also measured by Flourescence polarization assay. Serial dilution of purified Dvl2PDZ domain polypeptide (1-10 μM) was incubated with 10 nM probe peptide (FAM-KWYGWL-COOH) (SEQ ID NO: 169) in PBS, 0.1% Triton X100 as 30 μl volume in 96-well black HE96 plates (LJL Biosystem, Inc, Calif.), and incubated for 15 minutes at room temperature. Polarization measurements were performed in Analyst platereader (LJL Biosystems, Inc., Sunnyvale, Calif.). […] Competition experiments were performed by addition of serial dilution of the free peptides (0-500 μM) to solution with 10 nM probe and 1 μM Dvl2PDZ. The polarization was measured and IC50 values were derived as described above. Kᵢ values were calculated as described previously.
Flourescence polarization assay was used to measure the affinity of two internal peptide ligands N2 and N3 to DvlPDZ domain.

| fold lower affinity than D1 | Binder |
| --- | --- |
| 6 fold | Ac-GEIVLWSDIPG-NH2 (synthetic internal peptide ligand) [Peptide N3 (GEIVLWSDIPG)] |

target: T2, GST-Dvl2PDZ fusion protein; test: phage display selection on GST-Dvl2PDZ
Description: The libraries were cycled through rounds of binding selection with a GST-Dvl2PDZ fusion protein coated on 96-well Maxisorp immunoplates as the capture target. Phage were propagated in E. coli XL1-blue with M13-KO7 helper phage and 10 μM IPTG. After four rounds of binding selection, individual phage clones were analyzed in a high-throughput phage ELISA, and positive clones were subjected to DNA sequence analysis.
We used decapeptide libraries fused to the C-terminus or N-terminus of the phage coat protein. The library contained NNK degenerate codons that encoded all 20 natural amino acids. The possible occurrence of amber stop codons in the degenerate codon also provided for the display of shorter peptides for the C-terminal library. Each library was cycled through four rounds of binding selection with immobilized GST-Dvl2PDZ fusion protein as the capture target.

| Binder | binding result |
| --- | --- |
| PYTWINYGWVGGG [SEQ ID NO 67] | binds |
| LVQLTDYGWIGGG [SEQ ID NO 60] | binds |
| EWILTDYGVVGGG [SEQ ID NO 63] | binds |
| DTAYKDYGWIGGG [SEQ ID NO 61] | binds |
| SAYKCYGWIDGGG [SEQ ID NO 70] | binds |
| QYRFIDYGWIGGG [SEQ ID NO 69] | binds |

Continued, values first:

| binding result | Binder |
| --- | --- |
| binds | TEYGWMDYHP [SEQ ID NO 77] |
| binds | TVVWHDYGWIGGG [SEQ ID NO 65] |
| binds | DSLKYYGWIGGG [SEQ ID NO 68] |
| binds | VWHYYGWLDGGG [SEQ ID NO 80] |
| binds | SEWKNYGYIGGG [SEQ ID NO 62] |
| binds | WTIRDYGWLDGGG [SEQ ID NO 79] |
| binds | LWRVTDYGWVGGG [SEQ ID NO 64] |
| binds | LILVNYGWIDGGG [SEQ ID NO 78] |
| binds | TRFTNYGWLDGGG [SEQ ID NO 75] |
| binds | TVVWHDYGWIGGG [SEQ ID NO 59] |
| binds | AWIVDYGWIDGGG [SEQ ID NO 76] |
| binds | LWRVTDYGWVGGG [SEQ ID NO 58] |
| binds | ETSWKQYGWIGGG [SEQ ID NO 66] |
| binds | LVPIFYGWIDGGG [SEQ ID NO 73] |
| binds | SIIYYGWLDGGG [SEQ ID NO 71] |
| binds | ASLKYYGWLDGGG [SEQ ID NO 74] |
| binds | TDYGWIDYPP [SEQ ID NO 72] |

target: T1, purified Dvl2PDZ domain polypeptide; test: fluorescence polarization, direct titration of Dvl2PDZ against 10 nM probe
Description: as §1

| Kd | Binder |
| --- | --- |
| 536 nM | {FAM}-KWYGWL-OH (fluorescence polarization probe, 10 nM) [probe peptide (FAM-KWYGWL-COOH)] |

target: T1, purified Dvl2PDZ domain polypeptide; test: fluorescence polarization competition; 10 nM FAM-KWYGWL probe, 1 µM Dvl2PDZ
Description: as §1

| Ki | Binder |
| --- | --- |
| 4620 nM | Ac-GEIVLWSDIPG-NH2 (synthetic internal peptide ligand) [Peptide N3 (GEIVLWSDIPG)] |
| 1210 nM | Ac-GWKDYGWIDG-NH2 (synthetic internal peptide ligand) [Peptide N2 (GWKDYGWIDG)] |
| 725 nM | Ac-KWYGWL-OH (synthetic peptide) [Peptide D1 (KWYGWL-COOH)] |

target: T2, GST-Dvl2PDZ fusion protein; test: competition ELISA; GST-Dvl2PDZ (600 nM) binding to immobilized biotin-KWYGWL
Description: Affinity assays-The binding affinities of peptides for Dvl2PDZ were determined as IC₅₀ values using a competition ELISA, as previously described. The IC₅₀ value was defined as the concentration of peptide that blocked 50% of PDZ domain binding to immobilized peptide. Assay plates were prepared by immobilizing an amino-terminally biotinylated peptide (KWYGWL_-COOH) (SEQ ID NO: 169) on Maxisorp immunoplates coated with neutravidin and blocked with BSA. A fixed concentration of GST-PDZ fusion protein (600 nM) in PBS, 0.5% BSA, 0.1% Tween 20 (PBT buffer) was preincubated for 1 h with serial dilutions of peptide and then transferred to the assay plates. After 15 min incubation, the plates were washed with PBS, 0.05% Tween 20, incubated with a mixture of anti-GST antibody (0.5 μg/m1) and horseradish peroxidase/rabbit anti-mouse IgG antibody conjugate (1:2000 dilution) in PBT buffer, washed again, and detected with TMB peroxidase substrate.

| IC50 | Binder |
| --- | --- |
| 243000 nM | Ac-KGFGML-OH (synthetic peptide) |
| 140 nM | Ac-WKWYGWL (synthetic peptide; D1 with a Trp extension at position -6) [Peptide D3 (WKWYGWL)] |
| 310 nM | Ac-WKWYGWF (synthetic peptide; D2 with a Trp extension at position -6) [Peptide D4 (WKWYGWF)] |
| 1340 nM | Ac-KWYGWL-OH (synthetic peptide) [Peptide D1 (KWYGWL-COOH)] |
| 930 nM | Ac-KWYGWF (synthetic peptide; D1 with Leu to Phe at position 0) [Peptide D2 (KWYGWF)] |
